Molecular target: T1, endogenous NIBP (NIK and IKK2 Binding Protein) in MCF7 cells (human (MCF7 cells; species not printed …, UniProt Q96Q05 1-1148, limits assumed)
T1 construct: Immunoprecipitated from whole cell lysate with anti-NIBP antibody
Test: co-immunoprecipitation with anti-NIBP antibody from MCF7 lysate, immunoblot anti-IKK1/2 and anti-IKK1
Source text: Endogenous NIBP interacts with endogenous IKK2 in breast cancer cells. NIBP association with IKK2, but not IKK1, occurred in MCF7 cells. The level of IKK1 was confirmed by immunoblotting of the same blot (without stripping) with a specific anti-IKK1 antibody. The IKK2 co-immunoprecipitated with NIBP was phosphorylated as shown by the band shift compared to the input and the immunoblotting with anti-phospho IKK1/2(Ser-177/181) antibody (FIG. 4).

T1 sequence (Q96Q05 whole entry): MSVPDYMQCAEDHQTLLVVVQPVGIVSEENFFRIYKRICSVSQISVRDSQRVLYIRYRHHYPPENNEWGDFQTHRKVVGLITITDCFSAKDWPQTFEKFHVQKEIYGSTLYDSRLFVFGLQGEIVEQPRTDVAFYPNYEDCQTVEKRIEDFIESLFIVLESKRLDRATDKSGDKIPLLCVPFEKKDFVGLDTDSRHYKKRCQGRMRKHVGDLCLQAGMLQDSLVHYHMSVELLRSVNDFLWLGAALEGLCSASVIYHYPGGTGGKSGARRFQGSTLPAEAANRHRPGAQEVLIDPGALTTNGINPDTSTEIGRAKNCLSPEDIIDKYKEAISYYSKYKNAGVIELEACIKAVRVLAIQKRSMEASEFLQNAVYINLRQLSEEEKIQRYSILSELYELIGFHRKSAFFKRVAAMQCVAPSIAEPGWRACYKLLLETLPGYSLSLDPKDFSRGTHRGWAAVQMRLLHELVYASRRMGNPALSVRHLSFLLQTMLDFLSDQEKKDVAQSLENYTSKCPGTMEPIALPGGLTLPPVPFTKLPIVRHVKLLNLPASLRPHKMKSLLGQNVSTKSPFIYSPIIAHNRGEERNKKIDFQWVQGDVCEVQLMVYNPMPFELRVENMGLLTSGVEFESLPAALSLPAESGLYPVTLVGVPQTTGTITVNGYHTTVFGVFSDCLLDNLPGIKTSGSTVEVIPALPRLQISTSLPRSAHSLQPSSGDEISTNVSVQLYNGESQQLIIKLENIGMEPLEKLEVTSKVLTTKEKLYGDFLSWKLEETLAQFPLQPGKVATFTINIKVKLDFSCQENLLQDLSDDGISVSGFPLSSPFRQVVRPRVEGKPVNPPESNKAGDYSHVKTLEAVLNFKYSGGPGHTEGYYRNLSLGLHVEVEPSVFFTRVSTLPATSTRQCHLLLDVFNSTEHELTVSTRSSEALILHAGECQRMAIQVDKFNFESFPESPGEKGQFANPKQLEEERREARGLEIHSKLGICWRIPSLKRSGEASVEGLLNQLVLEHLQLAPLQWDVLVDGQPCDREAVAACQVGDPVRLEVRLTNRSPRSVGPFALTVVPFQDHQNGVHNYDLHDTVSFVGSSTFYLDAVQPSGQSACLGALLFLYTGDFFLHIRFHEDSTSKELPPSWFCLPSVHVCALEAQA

B1: endogenous IKK1 in MCF7 cells (enzyme, UniProt O15111 1-745, looked up)
chain: MERPPGLRPGAGGPWEMRERLGTGGFGNVCLYQHRELDLKIAIKSCRLELSTKNRERWCHEIQIMKKLNHANVVKACDVPEELNILIHDVPLLAMEYCSGGDLRKLLNKPENCCGLKESQILSLLSDIGSGIRYLHENKIIHRDLKPENIVLQDVGGKIIHKIIDLGYAKDVDQGSLCTSFVGTLQYLAPELFENKPYTATVDYWSFGTMVFECIAGYRPFLHHLQPFTWHEKIKKKDPKCIFACEEMSGEVRFSSHLPQPNSLCSLVVEPMENWLQLMLNWDPQQRGGPVDLTLKQPRCFVLMDHILNLKIVHILNMTSAKIISFLLPPDESLHSLQSRIERETGINTGSQELLSETGISLDPRKPASQCVLDGVRGCDSYMVYLFDKSKTVYEGPFASRSLSDCVNYIVQDSKIQLPIIQLRKVWAEAVHYVSGLKEDYSRLFQGQRAAMLSLLRYNANLTKMKNTLISASQQLKAKLEFFHKSIQLDLERYSEQMTYGISSEKMLKAWKEMEEKAIHYAEVGVIGYLEDQIMSLHAEIMELQKSPYGRRQGDLMESLEQRAIDLYKQLKHRPSDHSYSDSTEMVKIIVHTVQSQDRVLKELFGHLSKLLGCKQKIIDLLPKVEVALSNIKEADNTVMFMQGKRQKEIWHLLKIACTQSSARSLVGSSLEGAVTPQTSAWLPPTSAEHDHSLSCVVTPQDGETSAQMIEENLNCLGHLSTIIHEANEEQGNSMMNLDWSWLTE
notes: Endogenous protein in cell lysate
binding result: no binding

— patent US20120258539A1 (TEMPLE UNIVERSITY OF THE COMMONWEALTH OF HIGHER EDUCATION …, published 2012)
